Values quoted from earlier work as cited in article PMC10871162.
Read-outs that look alike come from different tables or passages of the source. Each block holds one substance with its values, some of them ahead of it.

Columns and labels:
[1] = molecular target: TRTK-12 (CapZ peptide) (Homo sapiens) (UniProt P52907)
[2] = molecular target: RyR peptide RyR peptide (Homo sapiens) (UniProt P21817)
RyR peptide = RyR peptide (UniProt P21817)
RIIβ peptide = RIIβ peptide (UniProt P31323)
[3] = molecular target: nonmuscle myosin IIA mysIIA peptide (Homo sapiens) (UniProt P35579)
[4] = molecular target: myosin IIA peptide (Homo sapiens) (UniProt P35579)
[5] = molecular target: TRTK-12 (CapZ peptide) (Homo sapiens) (UniProt P52907); remark: listed apart in the source

Sequence of UniProt P31323 (P31323 whole entry): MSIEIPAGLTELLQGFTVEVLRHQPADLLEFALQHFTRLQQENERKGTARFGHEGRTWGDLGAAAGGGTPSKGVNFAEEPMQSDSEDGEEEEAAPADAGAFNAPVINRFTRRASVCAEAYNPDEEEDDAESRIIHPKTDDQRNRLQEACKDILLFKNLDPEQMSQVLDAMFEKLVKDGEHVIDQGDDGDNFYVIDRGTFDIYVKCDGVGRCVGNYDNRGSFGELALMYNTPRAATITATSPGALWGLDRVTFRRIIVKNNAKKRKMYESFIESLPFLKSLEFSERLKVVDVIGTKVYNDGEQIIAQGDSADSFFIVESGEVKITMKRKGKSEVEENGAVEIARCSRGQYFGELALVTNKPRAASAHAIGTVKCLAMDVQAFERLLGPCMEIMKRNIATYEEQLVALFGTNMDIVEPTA

Kd [1]: 23 µM
Kd [2]: 8 µM
Kd (RyR peptide): 8 µM
Kd (RIIβ peptide): 2 µM
Substance: S100A1 (from UniProt P23297)

Kd [3]: < 0.001 µM
Kd [4]: < 0.001 µM
Substance: S100A4 (from UniProt P26447)

Kd [5]: 2.9 µM
Substance: S100B (from UniProt P04271)
